Measured values from patent CN109879965A.

Biological target: CD3E on human peripheral blood T lymphocytes (human) (UniProt P07766)
Test: cell-based or functional assay

Sequence of CD3E on human peripheral blood T lymphocytes (human) (P07766 23-207): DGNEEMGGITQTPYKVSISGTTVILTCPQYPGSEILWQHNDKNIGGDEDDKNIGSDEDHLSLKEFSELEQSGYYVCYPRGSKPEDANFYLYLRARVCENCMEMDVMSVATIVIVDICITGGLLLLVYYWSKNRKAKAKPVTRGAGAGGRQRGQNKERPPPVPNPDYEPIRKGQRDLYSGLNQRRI

IL-2 in the supernatant of PBMC after 48 h on plate-coated antibody (1 μg/mL), IL-2 ELISA: 400 pg/mL
Substance: OKT3 (antibody)
